Source: paper PMC9674830 (2022)
Positions of bridges follow the written chain, without caps; N, C: chain ends. Non-standard residues stand in square brackets, D forms with d. No end group written: not given here. pentenylalanine = pentenylalanine, unnatural amino acid di-substituted at Cα, crosslinked by ring-closing metathesis

B1: C-terminal domain of subunit 1 of the general transcription regulator TFIIF (RAP74-CTD) (domain or fragment)
chain: GDVQVTEDAVRRYLTRKPMTTKDLLKKFQTKKTGLSSEQTVNVLAQILKRLNPERKMINDKMHFSLKE

Target: B1
Test: ITC
For KKPGASLAALQELQLLQLLQELQAAQAAKKY (designed binder) [peptide δ], the Kd was 256 µM.

What follows are binders tested against γCtrl (assay: NMR).
B1 showed a Kd of over 1000 µM.

Target: B1
Test: NMR
For KKPGASASW[pentenylalanine]QLF[pentenylalanine]EEQAAQAAKK (staple 10-14) [peptide γ_(Stpl)], the Kd was 202 µM. KKPGASLAALQALQALQAAQAAKKY [peptide (P3-7)2] showed a Kd of over 1000 µM. Work on KKPGASAAAAQEAQLAQLAQELQAAQAAKKY [peptide δ_(ctrl)] yielded a Kd of over 1000 µM. With SAAASSSWHTLFTAEEGQLYG [AR-WHTLF peptide] the Kd was over 1000 µM. In the case of KKPGASLSWLQLFQEEQAAQAAKK (designed binder) [peptide γ], the Kd is reported as 626 µM. With KKPGASAAAAQE[pentenylalanine]QLA[pentenylalanine]LAQELQAAQAAKKY (staple 13-17) [peptide δ_(Stpl)] the Kd was over 1000 µM. KKPGASLAALQALQALQALQALQAAQAAKKY [peptide (P3-7)3] gave a Kd of over 1000 µM.
